Test results from US20130089868A1.

Target: MLS-NR2B (mitochondrial targeting signal sequence, myc-epitope, GST and NR2B residues 1271-1311) [GST: P08515]
Assay: percentage of green fluorescent HEK-293 cells with GFP clustering after Ca^2+ influx (FIG. 5)

- fold increase of the cell count against wild-type GFP-α-CaMKII: > 2 fold
Substance: GFP-T286D-α-CaMKII (from UniProt P11275 1-478) (enzyme)
